Test results reported in patent publication US20250082754A1 (NANJING LEGEND BIOTECH, published 2025).

Experiments:
Human CD33 C2 domain = biological target: T1, Human CD33 C2 domain (human, UniProt P20138); experiment: +/- column 'Human CD33 C2 domain' of the drawn table; legend: cell binding properties; assay not named on the sheet
T1 construct: C2 domain only; also called C2-set Ig-like domain of human CD33

human CD33 protein = biological target: T2, human CD33 protein (human, UniProt P20138 18-259); experiment: SPR (BIACORE T200), antibody fragment captured by affinity tag, 100 nM human CD33 flowed over, estimate from one concentration; column KD; no unit printed on the sheet
T2 construct: extracellular domain; It is not tied to the protein used in the screen, so it is not used here; also called recombinant human CD33 protein; CD33 ECD proteins
Experimental: The scFv proteins in the supernatant were analyzed for their ability to bind to CD33 ECD proteins by ELISA and CD33-overexpressing MV4-11 cell lines by FACS. All binders were sequenced and some were subjected to for further characterization including affinity ranking by surface plasmon resonance (SPR) on a BIACORE® T200 instrument. The experiments were carried out as follows: the crude […] proteins were captured through an affinity tag onto the sensorchip. High-concentration (100 nM) of human CD33 flowed over the sensorchip surface, and was allowed to bind the antibody fragments. On-rate (kon) and off-rate (koff) were roughly calculated based on the association and dissociation of one antigen concentration, and were used to estimate the equilibrium dissociation constant (KD).

T1 sequence (P20138 145-228 limits assumed): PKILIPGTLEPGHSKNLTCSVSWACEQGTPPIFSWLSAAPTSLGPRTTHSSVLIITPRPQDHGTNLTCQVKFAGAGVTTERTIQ
T2 sequence (P20138 18-259): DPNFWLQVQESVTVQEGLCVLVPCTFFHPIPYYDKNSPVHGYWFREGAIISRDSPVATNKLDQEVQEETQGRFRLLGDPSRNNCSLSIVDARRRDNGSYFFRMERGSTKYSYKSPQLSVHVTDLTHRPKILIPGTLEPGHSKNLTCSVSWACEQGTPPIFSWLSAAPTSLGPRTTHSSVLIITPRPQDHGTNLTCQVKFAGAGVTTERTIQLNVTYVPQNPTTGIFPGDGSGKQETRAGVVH

| binding result (Human CD33 C2 domain) | Kd (human CD33 protein) [nM] | Binder |
| --- | --- | --- |
| no binding (tested: not given) | 1.79 | AS141974 (scFv, Format as for f1; also called anti-CD33 IgG1 AS141974; AS141974 scFv) scFv (VL-linker-VH): NFMLTQPAAVSVSLGETARITCQGGNFGSYYASWYQQKPGQAPVLVIYANSNRPSGIPERFSGSSSGGTATLTISGAQAEDEADYYCQSYDSSAAVFGGGTHLTVLGGGGSGGGGSGGGGSQVQLQESGGGLVQPGGSLRLSCAASGFTFSSYAMSWVRQAPGKGLEWVSAINSGGGSTYYADSVKGRFTISRDNAKNTLYLQLNSLKTEDTAMYYCAKEGGLYYSDYDELYFGYWGQGTQVTVSS |
|  | 1.5 | AS199757 (scFv, Format as for f1; also called anti-CD33 IgG1 AS199757; AS199757 scFv) scFv (VL-linker-VH): NFMLTQPPSVSGSPGQKFTISCTGSSNNIGDNYVNWYQHLPGTAPKLLIYSNNNRASGVPDRFSGSKSGSSASLTITGLQAEDEADYYCSSWDDSLSGFVFGGGTHLTVLGGGGSGGGGSGGGGSAVQLVESGGGLVQPGGSLRLTCAASGFTFDNYGMSWVRQAPGKGLEWVSAIMWNGGTTYYAEPMKGRFTISRDNAKNTVYLQMNSLKSEDTAVYYCARHGSSWYAMDYWGQGTQVTVSS |
| no binding (tested: not given) | 0.0624 | AS141996 (scFv, Format as for f1; also called anti-CD33 IgG1 AS141996; AS141996 scFv) scFv (VL-linker-VH): SSELTQPSAVSVSLGETARITCQGGNVGSSYASWYQQKPGQAPVLVIYEDSERPSGIAERFSGSSSGGTATLTISGAQAEDEADYYCQSADNNGAVFGGGTHLTVLGGGGSGGGGSGGGGSEVQVVESGGGLVQPGGSLRLSCAGSGFTFSSYAMSWVRQAPGKGLEWVSTINSGGGSTYYADSVKGRFTISRDNAKNTLYLQLNSLKTEDTAMYYCANHLLIIYSDYDVRGSEAWETWGQGTLVTVSS |
|  | 0.064 | AS188893 (scFv, Format as for f1; also called anti-CD33 IgG1 AS188893; AS188893 scFv) scFv (VL-linker-VH): SYELTQPSAVSVSLGQTARITCQGGNLGTSYVHWYQQKPGQAPVLVIYGDDSRPSGIPERFSGSSSGGTATLTISGAQAEDEADYYCQSYDSSSSVFGGGTHLTVLGGGGSGGGGSGGGGSQVQLQESGGGLVQPGGSLRLSCAASGFTFSNNWMYWVRQAPGKGLEWVSSIATGDGSTNSADSVKGRFTISRDNTKNMLYLQMNSLKSEDTALYYCAKGVNIDHDVGAGDYWGQGTQVTVSS |
| no binding (tested: not given) | 21.4 | AS141837 (scFv, Format as for f1; also called anti-CD33 IgG1 AS141837; AS141837 scFv) scFv (VL-linker-VH): SSELTQPSAVSVSLGETARITCQGVNVGSYYASWYQQKPGQAPVLVIYGNSNRPSGIPERFSGSKSGGTATLTISGAQAEDEADYYCQSADSSAFNAVFGGGTHLTVLGGGGSGGGGSGGGGSQVQLVQSGGGLVQPGGSLRLSCAASGFTFSSYDMTWVRQAPGKGLEWVSAVNSGGGTTYYADSVKGRFTISRDNAKNTLYLQMNSLKTEDTAVYYCATAIEREEDPLWVGPEYNTWGQGTQVTVSS |
|  | 0.067 | AS199772 (scFv, Format as for f1; also called anti-CD33 IgG1 AS199772; AS199772 scFv) scFv (VL-linker-VH): SYELTQSPSVSVALRQAAKITCRGDNIETKYAYWYQQKPGQSPLLVIYKDDNRPSGIPERFSGSNSGNMATLTISGAQAEDEADYYCQVWDSSANWVFGGGTHLTVLGGGGSGGGGSGGGGSQVQLQESGGGLVQPGGSLRLSCAASGFTFSSYWMYWVRQAPGKGLEWVSAMNTGGGSTYYGDSVKGRFTVSRDNAKNTLALQMNSLKPEDTALYYCARSWGGMYSGGYYEYSGMDYWGKGTLVTVSS |
| no binding (tested: not given) | 0.364 | AS138521 (scFv, Format as for f1; also called anti-CD33 IgG1 AS138521; AS138521 scFv) scFv (VL-linker-VH): SSELTQPAAVSVSLGETARITCQGGNFGSYYATWYQQKPGQAPVLVIYANSNRPSGIPERFSGSSSGGTATLTISGAQAEDEADYYCQSYDNSANAVFGGGTHLTVLGGGGSGGGGSGGGGSEVQLVESGGGLVQPGGSLRLSCAASGSTFWSYYMSWVRQAPGKGLEWVSSIYSDGSYAYYADSVKGRFTISRDNAKNTVYLQMNSLKSEDTALYYCATAPTPDGGSWLWYNYWGQGTQVTVSS |
|  | 1.08 | AS187809 (scFv, Format as for f1; also called anti-CD33 IgG1 AS187809; AS187809 scFv) scFv (VL-linker-VH): EIVMTQSPSSVTASAGEKVTINCKSSQSVLYSSNQKSYLAWYQQRPGQSPRLLIYYASTRESGVPDRFSGSGSTTDFTLTISSVQPEDAAVYYCQQGYSAPVTFGQGTKLELKGGGGSGGGGSGGGGSQVQLQESGGGLVQPGGSLRLSCAASGFTFSRYYMSWVRQAPGKGLEWVSSIYSDGSNTYYTDSVKGRFTISRDNAKNTVYLQMNSLKSEDTAQYYCATDRDCSGIHCGAFGYWGQGTQVTVSS |
| no binding (tested: not given) | 3.06 | AS141962 (scFv, Format as for f1; also called anti-CD33 IgG1 AS141962; AS141962 scFv) scFv (VL-linker-VH): QAVLTQPSSVSGTPGQTVTISCAGTSSDVGSTNYVSWYRQLPGTAPKLLIYQVNYRASGIADRFSGSKSGNTASLTISGLQSADEADYYCASRSGNNFVFGGGTHLTVLGGGGSGGGGSGGGGSEVQLVESGGGLVQPGGSLRLSCAASGFTFSDFSIFWVRQAPGKGLEWVSSINFGGDRTYYADSVKGRFTISRNNAENTVYLQMNSLKAEDTAAYHCVTTAVALADCSGGCYTPGAFNAWGQGTLVTISS |
|  | 0.35 | AS199911 (scFv, Format as for f1; also called anti-CD33 IgG1 AS199911; AS199911 scFv) scFv (VL-linker-VH): SYELTQPSALSVTLGQSAKITCQGDNFETTYVHWYQQKPGQAPVLVIYNDDSRPSGIPERFSGSNSGDRATLTISGAQAEDEGDYYCQSADTSGNAYVFGGGTHLTVLGGGGSGGGGSGGGGSAVQLVESGGGLVQPGGSLRLSCAASGFTFSRSDMSWVRQAPGKGLEWVSYINSGGGTNRYADSVKARFTIFRDNAKNTLYLQMNTLKPEDTAVYYCAKSGFDSDWIFGYLERWGQGTLVTVSS |
| no binding (tested: not given) | 0.27 | AS142096 (scFv, Format as for f1; also called anti-CD33 IgG1 AS142096; AS142096 scFv) scFv (VL-linker-VH): NFMLTQPSAVSVSLGETARITCQGGKVGSNYASWYQQKPGQAPVLVIYGDDSRPSGIPERFSGSSSGGTATLTISGAQAEDEADYYCQSYDSSGYNAVFGGGTHLTVLGGGGSGGGGSGGGGSQVQLVESGGGLVQPGGSLRLSCAASGFTFFSYYMSWVRQAPGKGLEWVSSIYSDGSNTYYADSVKGRFTISRDNAKNTVYLQMNSLKSEDTALYYCATAGYYSDYVEFEYWGQGILVTVSS |
|  | 0.24 | AS200728C (scFv, Format as for f1; also called anti-CD33 IgG1 AS200728C; AS200728C scFv) scFv (VL-linker-VH): QAVVTQLSSMSGSPGQTVTITCTGSSSNIGGGYYLSWYQQLPGTAPKLLIYNVNNRASGVPNRFSGSKTGSLASLTITGLQAEDEADYYCGSYDESLSYVFGGGTHLTVLGGGGSGGGGSGGGGSQVQLVESGGGLVQPGGSLRVSCAASGFTFKNYYMGWVRQAPGKGLEWISGINSGGEVTTYADSVKDRFTISRDNAKNTLYLQMNSLKPDDTALYYCAGGEGSSWYPDYYYGNGYWGEGTLITVSS |
| no binding (tested: not given) | 0.348 | AS142077 (scFv, Format as for f1; also called anti-CD33 IgG1 AS142077; AS142077 scFv) scFv (VL-linker-VH): SYELTQPSAMSVSLGETTRITCQGGNIESSYASWYQQKPGQAPALVIYEDSERPSRIPERFSGSSSGGTATLTISGAQAEDEADYYCQSADSSGYNPVFGGGTHLTVLGGGGSGGGGSGGGGSQVQLVESGGGLVQPGGSLRLSCAASGFTFSSYAMSWVRQAPGKGLEWVSGINSGGGSTYYADSVKGRFTISRDNAKNTLYLQLNSLKTEDTAMYYCAKHLLIIYSDYDVRGSEALDAWGQGTLVTVSS |
| no binding (tested: not given) | 11.5 | AS141869 (scFv, The legend calls it anti-CD33 IgG1; also called anti-CD33 IgG1 AS141869; AS141869 scFv) scFv (VL-linker-VH): NFMLTQPSAVSVSLGETARITCQGGNVGTSYASWYQQKPGQAPVLVIYGNSNRPSGIPERFSGSKSGGTATLTISGAQAEDEADYYCQSADSRGYVAFGGGTHLTVLGGGGSGGGGSGGGGSQVQLQESGGGLVQPGGSLRLSCAASGFTFSSYDITWVRQAPGKGLEWVSAINSGGNSTYYADSVKGRFTISRDNAKNTLYLQMNSLKTEDTAVYYCATAIEREEDPLWVGPEYNYWGQGTQVTVSS |
